The text below walks through data of article PMC7826282.

In the assay the target is mutant forms of RUVBL1 and RUVBL2. Description: co-IP.

B1: RL-NOP58 (natural protein)
chain: MLVLFETSVGYAIFKVLNEKKLQEVDSLWKEFETPEKANKIVKLKHFEKFQDTAEALAAFTALMEGKINKQLKKVLKKIVKEAHEPLAVADAKLGGVIKEKLNLSCIHSPVVNELMRGIRSQMDGLIPGVEPREMAAMCLGLAHSLSRYRLKFSADKVDTMIVQAISLLDDLDKELNNYIMRCREWYGWHFPELGKIISDNLTYCKCLQKVGDRKNYASAKLSELLPEEVEAEVKAAAEISMGTEVSEEDICNILHLCTQVIEISEYRTQLYEYLQNRMMAIAPNVTVMVGELVGARLIAHAGSLLNLAKHAASTVQILGAEKALFRALKSRRDTPKYGLIYHASLVGQTSPKHKGKISRMLAAKTVLAIRYDAFGEDSSSAMGVENRAKLEARLRTLEDRGIRKISGTGKALAKTEKYEHKSEVKTYDPSGDSTLPTCSKKRKIEQVDKEDEITEKKAKKAKIKVKVEEEEEEKVAEEEETSVKKKKKRGKKKHIKEEPLSEEEPCTSTAIASPEKKKKKKKKRENED
Turning to B1, the co-IP efficiency was less than 0.1%.
